Assay: label from the status in PepcDB records
In the case of “MECDRNVEKMSQVILLFFIYSFIGWLWETVYCSLKAKKFVYRGFLVGPYCPIYGFGVLSVLYFVEPFENNLLVLYVGSAVLVTILEYVTSYGLEKLFHASWWDYHDVPFNLNGRVALPVSLFWGLGCVLIVKVIQPEIAKVVSFLQATFGNYLALCIVIVMGLDLIYTLLNMQGFKKLITEMGQTLETNQQEFKQRLNTKMEIATADWQKLKERTKKEHFQNRLNFQQRRFINNYPKLTLKNIKNSKEVRHLLEDLKKKGQ”, the protein production is reported as “failed”. With “MEDAAEQERGFHVITIRKQIVTAALPLQDHWLPLSNLDLLLPPVQISVCFCYKKPRHFLSVAETLKASLAEALVSYYAFAGELVKNSSGEPEILCNNRGVDFLEAVADVELRELNLHDPDESIAKLVPKKKHGVIAIQVTQLKCGSIVVGCTFDHRIADAFSMNMFLVSWAEISRFNAPISSVPSFRRSILNPRRPLIIDSSIDKMYMPVTSLPLPQETTNDLDNILTSRIYYIKENALEDLQTLASGSSPKTGYGQRTKLESFSAFLWKLVAKHTGRDLVSNKNSKMGIVVDGRRRLMEKEDNTYFGNVLSIPFGGQSIDDLIDKPLSWVTNEVHRFLEEAVTKEHFLNLIDWVEIHRPIPAVSRIYSTGTDDGPAFVVSSGRSFPVNKVDFGWGLPVFGSYHFPWEGSSGYVMPMPSPVDDGNGDWVVYLHLTKGQLKFIEEEASHVLKPIDNYYLKINTIN” the protein production was “failed”. With “MEDDCEELQVPVGTLTSIGFSISNNNDRDKMSVLEVEAPNQVTDSRLGLPNPDSVCRTCGSKDRKVCEGHFGVINFAYSIINPYFLKEVAALLNKICPGCKYIRKKQFQITEDQPERCRYCTLNTGYPLMKFRVTTKEVFRRSGIVVEVNEESLMKLKKRGVLTLPPDYWSFLPQDSNIDESCLKPTRRIITHAQVYALLLGIDQRLIKKDIPMFNSLGLTSFPVTPNGYRVTEIVHQFNGARLIFDERTRIYKKLVGFEGNTLELSSRVMECMQYSRLFSETVSSSKDSANPYQKKSDTPKLCGLRFMKDVLLGKRSDHTFRTVVVGDPSLKLNEIGIPESIAKRLQVSEHLNQCNKERLVTSFVPTLLDNKEMHVRRGDRLVAIQVNDLQTGDKIFRSLMDGDTVLMNRPPSIHQHSLIAMTVRILPTTSVVSLNPICCLPFRGDFDGDCLHGYVPQSIQAKVELDELVALDKQLINRQNGRNLLSLGQDSLTAAYLVNVEKNCYLNRAQMQQLQMYCPFQLPPPAIIKASPSSTEPQWTGMQLFGMLFPPGFDYTYPLNNVVVSNGELLSFSEGSAWLRDGEGNFIERLLKHDKGKVLDIIYSAQEMLSQWLLMRGLSVSLADLYLSSDLQSRKNLTEEISYGLREAEQVCNKQQLMVESWRDFLAVNGEDKEEDSVSDLARFCYERQKSATLSELAVSAFKDAYRDVQALAYRYGDQSNSFLIMSKAGSKGNIGKLVQHSMCIGLQNSAVSLSFGFPRELTCAAWNDPNSPLRGAKGKDSTTTESYVPYGVIENSFLTGLNPLESFVHSVTSRDSSFSGNADLPGTLSRRLMFFMRDIYAAYDGTVRNSFGNQLVQFTYETDGPVEDITGEALGSLSACALSEAAYSALDQPISLLETSPLLNLKNVLECGSKKGQREQTMSLYLSEYLSKKKHGFEYGSLEIKNHLEKLSFSEIVSTSMIIFSPSSNTKVPLSPWVCHFHISEKVLKRKQLSAESVVSSLNEQYKSRNRELKLDIVDLDIQNTNHCSSDDQAMKDDNVCITVTVVEASKHSVLELDAIRLVLIPFLLDSPVKGDQGIKKVNILWTDRPKAPKRNGNHLAGELYLKVTMYGDRGKRNCWTALLETCLPIMDMIDWGRSHPDNIRQCCSVYGIDAGRSIFVANLESAVSDTGKEILREHLLLVADSLSVTGEFVALNAKGWSKQRQVESTPAPFTQACFSSPSQCFLKAAKEGVRDDLQGSIDALAWGKVPGFGTGDQFEIIISPKVHGFTTPVDVYDLLSSTKTMRRTNSAPKSDKATVQPFGLLHSAFLKDIKVLDGKGIPMSLLRTIFTWKNIELLSQSLKRILHSYEINELLNERDEGLVKMVLQLHPNSVEKIGPGVKGIRVAKSKHGDSCCFEVVRIDGTFEDFSYHKCVLGATKIIAPKKMNFYKSKYLKNGTLESGGFSENP” the protein production was “failed”. With “MEDELPIIKGKKVILFAPTFRGSGHGTAHYPFFKIDFERLARYCEKNNAVVLFKMHPFVKNRLNIADKHKQYFVDVSDFREVNDILFITDLLISDYSSLIYEYAVFKKPMIFYAFDLEDYITTRDFYEPYESFVPGKIVQSFDALMDALDNEDYEGEKVIPFLDKHFKYQDGRSSERLVRNLFGS” the protein production was “not failed”. With “MEDEPGSENEADTIVASPLAKWRIEFSKSFQNYLDRSAPNIVRRWLVTLVAAVIYIYRVYSVYGYFVISYGLATYILNLLIGFLSPKVDPELEALDPDSLPVDESDEYKPFVRRLPEFKFWYAATKAFVVAFVMTFFSFLDVPVFWPILLCYWLVLYSLTMKRLIVHMFKYRYFPFDVRKPVKLLKFLVNSVLTFLRLKKQIQIGHHTRRTVWTRVYLLDFLDIGLANIHRVYAQLHLQQQQNIVKDIAMRDYWRDSIRQFPRKYLFITYQRFDEKSFLVSANHPKSAMEATTRILSTSSALNRLLLLSKLNLKSDPRNINSTNQLLHNAVTRKSSISAARIRCSSLPANANLFRSLFFLTSTFRLENTAVHANPFRSEPNDGVAVWNRAPRIVNGGGNAAIFGGNEGKETTVVLLGWLGAKAKHLRRYVEWYNSRGINAVTFTVDVRDLLRLDLGRRLERRIAEFGNELVNWVSEKEDDGREKCLVFHSFSNTGWLVYGALLESFIGRQDLVERIKGCIIDSGGADPLDTKVCSLFHVTKSFKCYSMVSPLLQDLVLEVEMSILL” the protein production was “failed”. In the case of “MEDFNMESDSFEDFWKGEDLSNYSYSSTLPPFLLDAAPCEPESLEINKYFVVIIYALVFLLSLLGNSLVMLVILYSRVGRSVTDVYLLNLALADLLFALTLPIWAASKVNGWIFGTFLCKVVSLLKEVNFYSGILLLACISVDRYLAIVHATRTLTQKRYLVKFICLSIWGLSLLLALPVLLFRRTVYSSNVSPACYEDMGNNTANWRMLLRILPQSFGFIVPLLIMLFCYGFTLRTLFKAHMGQKHRAMRVIFAVVLIFLLCWLPYNLVLLADTLMRTQVIQETCERRNHIDRALDATEILGILHSCLNPLIYAFIGQKFRHGLLKILAIHGLISKDSLPKDSRPSFVGSSSGHTSTTL”, the protein production is reported as “not failed”. For “MEDGHISSWWVVDLGEEHQLMCNYYTFRQDGSRAFTRFWKFQGSMDGKTWTDLRVHEDDQTMCKAGQFASWPITAANALLPFRFFRLVLTGPTADTSTPWNFCICYLELYGYFR”, the protein production was “failed”. In the case of “MEDIKIKEIFENIYEVDLGDGLKRIATKSIVKGKKVYDEKIIKIGDEEYRIWNPNKSKLAAAIIKGLKVMPIKRDSKILYLGASAGTTPSHVADIADKGIVYAIEYAPRIMRELLDACAERENIIPILGDANKPQEYANIVEKVDVIYEDVAQPNQAEILIKNAKWFLKKGGYGMIAIKARSIDVTKDPKEIFKEQKEILEAGGFKIVDEVDIEPFEKDHVMFVGIWEGK”, the protein production is reported as “not failed”. In the case of “MEDLEETLFEEFENYSYDLDYYSLESDLEEKVQLGVVHWVSLVLYCLAFVLGIPGNAIVIWFTGFKWKKTVTTLWFLNLAIADFIFLLFLPLYISYVAMNFHWPFGIWLCKANSFTAQLNMFASVFFLTVISLDHYIHLIHPVLSHRHRTLKNSLIVIIFIWLLASLIGGPALYFRDTVEFNNHTLCYNNFQKHDPDLTLIRHHVLTWVKFIIGYLFPLLTMSICYLCLIFKVKKRSILISSRHFWTILVVVVAFVVCWTPYHLFSIWELTIHHNSYSHHVMQAGIPLSTGLAFLNSCLNPILYVLISKKFQARFRSSVAEILKYTLWEVSCSGTVSEQLRNSETKNLCLLETAQ”, the protein production is reported as “failed”. With “MEDQCIISHLAGIFSGVLATDFLRYAVGAGGVYLTVNLALAARLRARKIRAYEPPKGQIGREILASLRTVLIFALNGTLIVVGAEAGLVPIYREIATHGWAYLFFSTTVLIVAHDTWFYWSHRLLHYPPIFRRFHRLHHKSHNPTPFTSYSFDLGEAVVNAIYLPLILLVLPAHPVAILVFVTHMMLRNAIGHSGYEIFPANRRGKPLFDWITTVTHHDLHHAHAGYNLGLYFTWWDRLMGTEHPDYHEAFQKVAKPASWPSVRAVILAFAIFTGIAVSDARAERLSGAYASPGFGVIVRFEPCNANPGLTCGRMIWAWDAAEVPHAQSGDVIVIDLHGDGNVWSGRLKNPENGRMYRGSVVQRSPDTIVLRGCAGPFCTSQIWHSVRALRRALESAE” the protein production was “failed”. With “MEDSSLLSPISLLTIVIFLFILNLMMIIQDFSSSFPFRFHLFFSNAYILFTSIRNNKQNTELPIIKKVVVPNRADIKTSVEEVKAIIDDSEALYECLIEEGEEYLLEKNEMMGKEIVKEAFRLFDENQDGFIDENELKHVLSLLGYDECTKMECRKMVKVYDENRDGKIDFYEFVKLIEKSFS” the protein production was “failed”. With “MEDTMSKKAKKIIKIVVISIVTLAITICFGGYMMFHNEIKTLHSIEKLDDYPFYMMEYYGDYGLDEFLEQGGASSDSELVSFVVKRLMKGLPIEINIPSLGCSTFTAVTPENEYLFGRNFDLSYSPAMMVRTKPEKGYESVSMVNLGFIGYGKDKLPDNFFNSITTLAGPYAPLDGMNEKGLSVGVLLIPTEETNQTTNKVDITTTTAIRMILDTCATVEEAVDLLSQYDMHSSANSCYHFQIADANGTSVVVEYINNEMKLVEPKQAYQAATNFLLTPGDYDFGHGQDRYNTLMTTLDKKQGVLSEKEAMNLLKAVSQQPHKTKDGSISATQWSVVYNNTKRTATVSMGMDYQHTYEIKLFE” the protein production was “failed”. With “MEEENNLNSKDTQNTFLKGSAWMTFGSIASRILGALYIIPWYAWMGQYGNIANALTARSYNIYTIFILISTAGIPGAIAKQVAKYNALNEYGIGRRLFHKGLILMAILGVVSAAIMYFASPLLASNGSQSDPRQIAVMRSLSYAILIIPILSIMRGYFQGYADMMPSAMSQFVEQFARVVWMLLTAFVIMQVQHGSYVHAVIQSNLAAAVGAAFGIGLLVWFLFSRRKQLDYLVANSNNRLRVSTTELFAEIIEQAIPFIIIDSGITLFSLVDQYTFHPMIAGLVHASSDAIEDWYALFGLNANKLIMIIVSLASAMAVTAIPLLSAAHTRGDYKSISRQIANTMDLFLFVMIPAAFGMAAISRPIYTVFYGPDQLGSNVLYLSAFTAISLGLFTVLMAILQGLSENGLAIKYLVLGLILKGILQYPMIFLFKIYGPLVATNLGLLVIVLLSLKHLEVQYNFNLNRTSRRLVGITAFSIGMFIIVKLVEMGLGKFLSPDRRISALILVIVAVSIGIIFYGFAALKTDLAQKIMGSKIESILVRLRIHD” the protein production was “failed”. In the case of “MEEGDFFNCCFSEISSGMTMNKKKMKKSNNQKRFSEEQIKSLELIFESETRLEPRKKVQVARELGLQPRQVAIWFQNKRARWKTKQLEKEYNTLRANYNNLASQFEIMKKEKQSLVSELQRLNEEMQRPKEEKHHECCGDQGLALSSSTESHNGKSEPEGRLDQGSVLCNDGDYNNNIKTEYFGFEEETDHELMNIVEKADDSCLTSSENWGGFNSDSLLDQSSSNYPNWWEFWS”, the protein production is reported as “failed”. In the case of “MEEISGGALTDTLTDIVTWAAKEVGAIALGASLGAIFGTAYAGRWGGVSGGIFGIGSIGQGVGMIAGVILGGVCFGIAAGIVGWDMTLDYAQGVMDAIYDGTLNFWSN”, the protein production is reported as “failed”. For “MEELKTKGEHGNEEAKKAPATGETETVEKNVAIRRTSTASSEQDLDTFLLGDLEDSDEAPDDGDGSLEDDFDKIGNSDVEDEKQSSKATTNAGNEVSC”, the protein production was “failed”.
